Laboratory results taken from the nanobody polyreactivity screen of Harvey et al. (2022).

Experiment: yeast display, Sf9 membrane polyspecificity reagent, FACS + sequencing; frameworks hold sequencing errors
In short: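 Nanobodies from a synthetic yeast display library (Saccharomyces cerevisiae BJ5465), induced 36–48 hours with galactose, were stained 1 hour at 4 °C with 10% biotinylated, detergent-solubilized Sf9 membrane reagent, enriched on streptavidin microbeads, then FACS-sorted. Anti-HA (expression) and streptavidin (reagent binding) fluorescence set low and high (top ~1%) gates. Polyreactivity labels come from the gate of origin. Genes were colony-PCR amplified, MiSeq 2 × 250 sequenced and filtered by CDR length.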

Sequence	polyreactivity (PSR sort gate)
QVQLVESGGGLVQAGGSLRLSCAASGSTFLTYAMGWYRQAPGKERELVAAIRWSGGSTYYADSVKGRFTISRDNAKNTVYLQMNSLKPEDTAVYYCAARSPRASGNSDYWGQGTQVTVSS	high polyreactivity
QVQLVESGGGLVQAGGSLRLSCAASGSTFLVNAMGWYRQAPGKERELVAAISRSTGSTYYADSVKGRFTISRDNAKNTVYLQMNSLKPEDTAVYYCAVYRHGYGYNYWGQGSQVTVSS	high polyreactivity
QVQLVESGGGLVQAGGSLRLSCAASGSTFLYYAMGWYIQAPGKERELVAAISRSGGNTYYADSVKGRFTISRDNAKNTVYLQMNSLKPEDTAVDYCAKSPPGRGIRRLYYYWGQGTQVTVSS	high polyreactivity
QVQLVESGGGLVQAGGSLRLSCAASGSTFLYYAMGWYRPAPGKERELVAAIRWTAGSTYYADSVKGRFTISRDNAKNSVYLQMNSLKPEDTAVYYCAAVGYVRNYYTYEHWGQGTQVTVSS	low polyreactivity
QVQLVESGGGLVQAGGSLRLSCAASGSTFLYYAMGWYRQAPGKERELVAVISWSCVSTYYADSVKGRFTISRDNAKYTVYLQMNSLKPEDTAVSYCAADWDWRFHRMNYWGQGTQVTVSS	low polyreactivity
QVQLVESGGGLVQAGGSLRLSCAASGSTFLYYAMGWYRQAPGKERELVAVISWSGVSTYYADSVKGRFTISRYNAKNTVYLQMNSLKPEDTAVYYCNTGNHYIRTYGYWGLGTQVTVSS	low polyreactivity
QVQLVESGGGLVQAGGSLRLSCAASGSTFLYYGMGWYRQAPGKERALVAGIDGTGSSTYYADSVKGRFTISRDNAKNTVYLQMNSLKPEDTAVYYCAKRYPRYRSRYYYWGQGTQVTVSS	low polyreactivity
QVQLVESGGGLVQAGGSLRLSCAASGSTFNDNAMGWYRPAPGKERELVAAIRWSGGSTYYADSVKGRFTISRDNAKNTVYLQMNSLKPEDTAVYYCAASRRYYLTYRYYYWGQGTQVTVSS	high polyreactivity
QVQLVESGGGLVQAGGSLRLSCAASGSTFNDNAMGWYRQAPGKERELVAAIRWSGGSTYYADSVKGRFTISRDNAKNTVYLQMNSLKPEDTAVYYCAASRRYYLTYRYYYWGQGTQVTVSS	high polyreactivity
QVQLVESGGGLVQAGGSLRLSCAASGSTFNEYVMGWYRQAPGKERELVAAITGGGGRTYYADSVKGRFTISRDNAKNTVYLQMNSQKPEDTAVYYCAKRYLYGTYWGFFRYDYWGQGTQVTVSS	low polyreactivity
QVQLVESGGGLVQAGGSLRLSCAASGSTFNKYAMGWYRQAPGKERELVAAIRSNGVRTYYADSVKGRFTISRDNAKNTVYLQMNSLKPEDTAVYYCNKRYTYRYDYWGQGTQVTVSS	high polyreactivity
QVQLVESGGGLVQAGGSLRLSCAASGSTFNPYAMAWYRQAPGKEREFVAAISWRGGSTYYADSVKGRFTISRDNAKNTVYLQMNSLKPEDTAVYYCAARRLYSHTTSGRGYWGQGTQVTVSS	high polyreactivity
QVQLVESGGGLVQAGGSLRLSCAASGSTFNPYAMGWYRQAPGKERELVATITWRGTSTYYADSVKGRFTISRDNAKNTVYLQMNSLKPEDTPVYYCAARVRYKYDYWGQGTQVTVSS	high polyreactivity
QVQLVESGGGLVQAGGSLRLSCAASGSTFNRNAMGWYRQAPGKERELVAAISWRGDSTSYADSVKGRFTISRDNAKNTVYLQMNSLKPEDTAVYYCAAYRVILYYLYDYWGQGTQVTVSS	low polyreactivity
QVQLVESGGGLVQAGGSLRLSCAASGSTFNRNAMGWYRQAPGKERELVADISRGGRTYYSDSVKGRFTITRDNAKNTVYLQMNSLKPEDTAVFYCATVVSRGKQPFDMDYWGQGTQVTVSS	low polyreactivity
QVQLVESGGGLVQAGGSLRLSCAASGSTFNRNTMGWYRQAPGKERELLAAISRRGGSTYYADSVKGRFTISRDNAKNTVYLQMNSLKPEDTAVYYCAAGREYRVYKGAQEFDYWGQGTQVTVSS	high polyreactivity
QVQLVESGGGLVQAGGSLRLSCAASGSTFNRNTMGWYRQAPGKERELVAAITSSGGRTYYADSVKGRFTISRDNAKNTVYLQVNSLKPEDTAVYYCANVIRVLIAGRFDSWGQGTHVTVSS	high polyreactivity
QVQLVESGGGLVQAGGSLRLSCAASGSTFNRYAMGWYRQAPGKERELVAAISLSGGSTYYADSVKGRFTISRDNAKNTVYLQMNSLKPEDTAVYYCAADIFYYSSSYGYWGQGTQVTVSS	low polyreactivity
QVQLVESGGGLVQAGGSLRLSCAASGSTFNRYAMGWYRQAPGKERELVASISCSGGGSTYYADSVKGRFTISRDNAKNTVYLQMNSLKPEDTAVYYCAVSRDSYGGKGSVLYDYWGQGTQVTVSS	low polyreactivity
QVQLVESGGGLVQAGGSLRLSCAASGSTFNSYAMGWYRQAPGKEWELVAAITSSVGSTYYADSVKGRFTISRDNAKNTVYLQMNSLKPEDTAVYYCAADYFSFWYFSGYDYWGQGTQVTVSS	low polyreactivity
QVQLVESGGGLVQAGGSLRLSCAASGSTFNSYVMGWYRQAPGKERELVAAITSSGSTYYADSVKGRFTISRDNAKNTVYLQMNSLKPEDTAVYYCNAQDAWEWQGVWVGARDDYDYWGQGTQVTVSS	low polyreactivity
QVQLVESGGGLVQAGGSLRLSCAASGSTFNTYDMGWYRQAPGKERELVAAISFSDASTYYADSVKGRFTISRDNAKYTVYLQMNSLKPEDTAVYYCAADTRRITTVTTGEYGYWGQGTQVTVSS	low polyreactivity

Sequence	polyreactivity (PSR sort gate)
QVQLVESGGGLVQAGGSLRLSCAASGSTFNVNAMGWYRQAPGKETEFVAAITYRGGRTYYADSVKGRFTISRDNEKNTVYLQMNSLKPEDTAVYYCAADGYRKRGFDYWGQGTQVTVSS	high polyreactivity
QVQLVESGGGLVQAGGSLRLSCAASGSTFNYNAMGWYRQAPGKERELVAAITGTGGDTYYADSVKGRITISRDNAKNTVYLQMNILKPEDTAVYYCDAEEDYWGQGTQVTLSS	low polyreactivity
QVQLVESGGGLVQAGGSLRLSCAASGSTFNYNAMGWYRQAPGKERELVATITTSGGSTYYADSVKGRFTISRDNAKNTVYLQMNSLKPEDTAVYYCAARYPWYRTIDRYDYWGQGTQVTVSS	low polyreactivity
QVQLVESGGGLVQAGGSLRLSCAASGSTFNYYAMGWYRPAPGKERELVAAISWSGGSTYYADSVKGRFTISRDNAKNTVYLQMNSLKPEDTAVYYCAAYPARPWARGDRRRIRFWGQGTQVTVSS	high polyreactivity
QVQLVESGGGLVQAGGSLRLSCAASGSTFNYYAMGWYRQAPGKERELVAAIDWSGGSTYYADSVKGRFTISRDNAKNTVYLQMNSLKPEDTAVYYCAARTYDYSYRSYDYWGQGTQVTVSS	low polyreactivity
QVQLVESGGGLVQAGGSLRLSCAASGSTFNYYTMGWYRQAPGKERELVAAISGRGSITYYADSVKGRFTISRDNAKNTVYLQMNSLKPEDTAVYYCNARYGRWQGSSGEHDYWGQGTQVTVSS	high polyreactivity
QVQLVESGGGLVQAGGSLRLSCAASGSTFPAYAMGWYRQAPGKERELVAVINLSGSTYYADSVKGRFTISRDNAKNTVYLQMNSLKPEDTAVYYCNARPYDYYRYGYWGQGTQVTVSS	low polyreactivity
QVQLVESGGGLVQAGGSLRLSCAASGSTFPDYAMGWYRQAPGKERELVAAISYRGGSTNYADSVKGRFTISRDNAKNTVYLQMNSLKPEDTAVYYCATDDYYPQPFYYEYDYWGQGSQVTVSS	low polyreactivity
QVQLVESGGGLVQAGGSLRLSCAASGSTFPGNAMGWYRQAPGKERELVASISGGGDSTYYADSVKGRFTISRDNAKNTVYLQMNSLKPEDTAVYYCAADYRQEPGYTGYYYWGQGTQLTVSS	low polyreactivity
QVQLVESGGGLVQAGGSLRLSCAASGSTFPGNSMGWYRQAPGKEMELVAAIDTSGGSTYYADSVKWRFTISRDNAKNTVYLQINSLKPEDTAVYYCAADYLIEMDYWGQGTQVTVSS	low polyreactivity
QVQLVESGGGLVQAGGSLRLSCAASGSTFPGYAMGWYRQAPGKERELVAAINWRGDSTYYADSVKGRFTISRDNAKNTVYLQMNSLKPEDTAVYYCAAKYNHVTDEYDYWGQGTQVTVSS	high polyreactivity
QVQLVESGGGLVQAGGSLRLSCAASGSTFPGYAMGWYRQAPGKERELVATISSGGSTNYADSVKGRFTISRDNAKNTVYLQMNSLKPEDTAVYYCAKLRSAKFRYGYWGQGTQVTVSS	low polyreactivity
QVQLVESGGGLVQAGGSLRLSCAASGSTFPGYDMGWYRQAPGKERELVAAISWRDGRTFYADSVKGRFTISRDNAKNTVYLQMNSLKPEDSAVYYCAAAQRTAYLTYSYKYNYWGQCTQVTVSS	high polyreactivity
QVQLVESGGGLVQAGGSLRLSCAASGSTFPIYAMGWYRQAPGKERELVASIRSGGSTYYADSVKGRFTMSRDNAKNTVYLQMNSLKPEDTAVYYCARRDYGVLNKGLGQEGDYWGQGTQVTVSS	low polyreactivity
QVQLVESGGGLVQAGGSLRLSCAASGSTFPKYAMGWYRQAPGKERELVASISVTTGSTYYADSVKGRFTISRDNAKNTVYLQMNSVKPEDTAVYYCAARRGWGDDYWGQGTQVTVSS	high polyreactivity
QVQLVESGGGLVQAGGSLRLSCAASGSTFPKYAMGWYRQAPGKERELVATISSGTRTYYADSVKGRFTISRDNAKNTVYLQMNSLKPEDTAVYYCAARYQPRKGAHYGYWGQGTQVTVSS	high polyreactivity
QVQLVESGGGLVQAGGSLRLSCAASGSTFPLNVMGWYRQAPGKERELVAAISSAGSTNYADSVKGRFTISRDNAKNTVYLQMNSLKPEDTAVYYCNADVRSTWYWLQYTPIYDYWGQGTQVTVSS	low polyreactivity
QVQLVESGGGLVQAGGSLRLSCAASGSTFPLYAMGWYRQAPGKERELVAAISSSGGSTYYADSVKGRFTISRDNAKNTVYLQMNNLKPEDTAVYYCAAAPTSYSGYGYWGQGTQVTVSS	low polyreactivity
QVQLVESGGGLVQAGGSLRLSCAASGSTFPNYPMGWNRQSPGKERELVAAITRSGRSTYYADSVKGRFTISRDNAKNTVYLQMNSLKPEDTGVYYCNAQHLARMDYWGQGTQVTVSS	high polyreactivity
QVQLVESGGGLVQAGGSLRLSCAASGSTFPPNAMGWYRQSPGKERELVAVISYSDGSTYYADSVKGRFTISRDNAKNTVYLQMNSLKPEDTAVYYCAAYCGYGGVSMYYWGQGTQVTVSS	low polyreactivity
QVQLVESGGGLVQAGGSLRLSCAASGSTFPQNAMGWYRQAPGKERELVAAISRSGGRTYYADSVKGRFTISRDNAKNTVYLQMNILKPEDTAVYYCNAGFYQKYDYWGQGTQVTVSS	high polyreactivity
